B1: Speckle-type POZ protein (Homo sapiens), O43791 (parent)
chain: MSRVPSPPPPAEMSSGPVAESWCYTQIKVVKFSYMWTINNFSFCREEMGEVIKSSTFSSGANDKLKWCLRVNPKGLDEESKDYLSLYLLLVSCPKSEVRAKFKFSILNAKGEETKAMESQRAYRFVQGKDWGFKKFIRRDFLLDEANGLLPDDKLTLFCEVSVVQDSVNISGQNTMNMVKVPECRLADELGGLWENSRFTDCCLCVAGQEFQAHKAILAARSPVFSAMFEHEMEESKKNRVEINDVEPEVFKEMMCFIYTGKAPNLDKMADDLLAAADKYALERLKVMCEDALCSNLSVENAAEILILADLHSADQLKTQAVDFINYHASDVLETSGWKSMVVSHPHLVAEAYRSLASAQCPFLGPPRKRLKQS
partner: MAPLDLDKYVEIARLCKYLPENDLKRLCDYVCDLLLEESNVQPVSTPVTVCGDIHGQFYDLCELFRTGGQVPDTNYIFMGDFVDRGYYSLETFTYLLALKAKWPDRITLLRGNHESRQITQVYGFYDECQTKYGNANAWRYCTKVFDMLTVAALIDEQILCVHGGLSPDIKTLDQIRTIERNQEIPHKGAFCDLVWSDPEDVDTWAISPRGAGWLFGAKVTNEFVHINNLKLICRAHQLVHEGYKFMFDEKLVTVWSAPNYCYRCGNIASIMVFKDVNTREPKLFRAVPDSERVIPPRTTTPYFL
B2: Speckle-type POZ protein (Homo sapiens), O43791 (parent)
chain: B1 chain
partner: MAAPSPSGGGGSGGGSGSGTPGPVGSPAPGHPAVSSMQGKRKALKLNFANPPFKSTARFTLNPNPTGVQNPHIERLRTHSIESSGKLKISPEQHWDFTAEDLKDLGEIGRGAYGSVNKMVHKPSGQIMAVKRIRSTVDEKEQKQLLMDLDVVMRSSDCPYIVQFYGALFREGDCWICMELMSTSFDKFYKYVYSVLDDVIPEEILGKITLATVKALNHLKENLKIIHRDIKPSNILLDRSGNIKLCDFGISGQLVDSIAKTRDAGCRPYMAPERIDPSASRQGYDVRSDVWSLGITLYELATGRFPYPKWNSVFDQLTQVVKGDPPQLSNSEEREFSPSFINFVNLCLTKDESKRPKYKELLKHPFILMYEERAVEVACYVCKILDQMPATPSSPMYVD
B3: Speckle-type POZ protein (Homo sapiens), O43791 (parent)
chain: B1 chain
partner: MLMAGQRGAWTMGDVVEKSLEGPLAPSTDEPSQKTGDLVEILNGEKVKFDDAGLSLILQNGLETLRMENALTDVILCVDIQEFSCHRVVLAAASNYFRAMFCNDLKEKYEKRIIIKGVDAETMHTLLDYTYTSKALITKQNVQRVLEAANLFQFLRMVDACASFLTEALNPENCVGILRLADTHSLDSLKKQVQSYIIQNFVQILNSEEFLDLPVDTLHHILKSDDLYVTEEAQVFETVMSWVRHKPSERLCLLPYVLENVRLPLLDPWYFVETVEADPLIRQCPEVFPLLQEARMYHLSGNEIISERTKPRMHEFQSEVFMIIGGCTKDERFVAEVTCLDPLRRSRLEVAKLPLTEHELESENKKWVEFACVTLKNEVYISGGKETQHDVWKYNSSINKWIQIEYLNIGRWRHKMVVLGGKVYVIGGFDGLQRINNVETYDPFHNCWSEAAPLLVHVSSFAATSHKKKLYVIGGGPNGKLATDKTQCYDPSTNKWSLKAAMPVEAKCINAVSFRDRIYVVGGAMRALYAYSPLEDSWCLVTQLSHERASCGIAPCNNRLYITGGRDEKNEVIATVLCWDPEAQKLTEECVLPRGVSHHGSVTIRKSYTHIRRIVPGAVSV
B4: Speckle-type POZ protein (Homo sapiens), O43791 (parent)
chain: B1 chain
partner: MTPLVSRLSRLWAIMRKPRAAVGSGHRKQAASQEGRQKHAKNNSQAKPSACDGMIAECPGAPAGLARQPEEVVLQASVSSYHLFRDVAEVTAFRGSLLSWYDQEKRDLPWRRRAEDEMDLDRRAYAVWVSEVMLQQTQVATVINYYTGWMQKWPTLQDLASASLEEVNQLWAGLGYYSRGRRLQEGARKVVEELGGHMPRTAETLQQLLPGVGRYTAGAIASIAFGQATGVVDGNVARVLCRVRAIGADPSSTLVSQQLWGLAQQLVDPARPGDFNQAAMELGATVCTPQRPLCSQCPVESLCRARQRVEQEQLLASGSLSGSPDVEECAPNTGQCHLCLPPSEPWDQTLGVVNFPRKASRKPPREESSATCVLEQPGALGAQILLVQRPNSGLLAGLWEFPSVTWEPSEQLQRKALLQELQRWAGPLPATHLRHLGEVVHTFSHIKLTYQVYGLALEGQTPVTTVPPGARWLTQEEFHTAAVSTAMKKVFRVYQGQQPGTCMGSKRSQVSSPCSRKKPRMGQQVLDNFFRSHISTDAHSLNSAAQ
B5: Speckle-type POZ protein (Homo sapiens), O43791 (parent)
chain: B1 chain
partner: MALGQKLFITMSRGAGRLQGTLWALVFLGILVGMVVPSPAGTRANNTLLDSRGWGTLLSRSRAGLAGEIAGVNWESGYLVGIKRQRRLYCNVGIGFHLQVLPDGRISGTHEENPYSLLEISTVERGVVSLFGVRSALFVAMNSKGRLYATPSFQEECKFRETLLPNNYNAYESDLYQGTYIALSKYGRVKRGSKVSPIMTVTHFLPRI
B6: Speckle-type POZ protein (Homo sapiens), O43791 (parent)
chain: B1 chain
partner: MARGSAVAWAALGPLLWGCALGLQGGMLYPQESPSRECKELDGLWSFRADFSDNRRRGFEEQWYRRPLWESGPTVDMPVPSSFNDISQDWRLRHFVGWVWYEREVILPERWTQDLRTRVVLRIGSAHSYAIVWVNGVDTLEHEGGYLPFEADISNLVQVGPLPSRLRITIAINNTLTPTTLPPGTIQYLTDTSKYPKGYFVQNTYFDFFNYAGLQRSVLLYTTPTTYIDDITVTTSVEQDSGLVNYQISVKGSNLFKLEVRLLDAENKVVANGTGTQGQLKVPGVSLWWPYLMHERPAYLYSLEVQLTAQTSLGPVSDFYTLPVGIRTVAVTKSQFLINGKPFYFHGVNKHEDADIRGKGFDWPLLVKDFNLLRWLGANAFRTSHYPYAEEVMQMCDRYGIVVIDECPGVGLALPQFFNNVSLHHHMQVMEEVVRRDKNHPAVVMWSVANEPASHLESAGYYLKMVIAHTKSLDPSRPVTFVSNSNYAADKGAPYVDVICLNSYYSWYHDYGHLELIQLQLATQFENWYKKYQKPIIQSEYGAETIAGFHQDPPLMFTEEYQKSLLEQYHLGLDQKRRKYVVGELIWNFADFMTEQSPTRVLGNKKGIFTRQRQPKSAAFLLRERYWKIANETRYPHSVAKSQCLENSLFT
B7: Speckle-type POZ protein (Homo sapiens), O43791 (parent)
chain: B1 chain
partner: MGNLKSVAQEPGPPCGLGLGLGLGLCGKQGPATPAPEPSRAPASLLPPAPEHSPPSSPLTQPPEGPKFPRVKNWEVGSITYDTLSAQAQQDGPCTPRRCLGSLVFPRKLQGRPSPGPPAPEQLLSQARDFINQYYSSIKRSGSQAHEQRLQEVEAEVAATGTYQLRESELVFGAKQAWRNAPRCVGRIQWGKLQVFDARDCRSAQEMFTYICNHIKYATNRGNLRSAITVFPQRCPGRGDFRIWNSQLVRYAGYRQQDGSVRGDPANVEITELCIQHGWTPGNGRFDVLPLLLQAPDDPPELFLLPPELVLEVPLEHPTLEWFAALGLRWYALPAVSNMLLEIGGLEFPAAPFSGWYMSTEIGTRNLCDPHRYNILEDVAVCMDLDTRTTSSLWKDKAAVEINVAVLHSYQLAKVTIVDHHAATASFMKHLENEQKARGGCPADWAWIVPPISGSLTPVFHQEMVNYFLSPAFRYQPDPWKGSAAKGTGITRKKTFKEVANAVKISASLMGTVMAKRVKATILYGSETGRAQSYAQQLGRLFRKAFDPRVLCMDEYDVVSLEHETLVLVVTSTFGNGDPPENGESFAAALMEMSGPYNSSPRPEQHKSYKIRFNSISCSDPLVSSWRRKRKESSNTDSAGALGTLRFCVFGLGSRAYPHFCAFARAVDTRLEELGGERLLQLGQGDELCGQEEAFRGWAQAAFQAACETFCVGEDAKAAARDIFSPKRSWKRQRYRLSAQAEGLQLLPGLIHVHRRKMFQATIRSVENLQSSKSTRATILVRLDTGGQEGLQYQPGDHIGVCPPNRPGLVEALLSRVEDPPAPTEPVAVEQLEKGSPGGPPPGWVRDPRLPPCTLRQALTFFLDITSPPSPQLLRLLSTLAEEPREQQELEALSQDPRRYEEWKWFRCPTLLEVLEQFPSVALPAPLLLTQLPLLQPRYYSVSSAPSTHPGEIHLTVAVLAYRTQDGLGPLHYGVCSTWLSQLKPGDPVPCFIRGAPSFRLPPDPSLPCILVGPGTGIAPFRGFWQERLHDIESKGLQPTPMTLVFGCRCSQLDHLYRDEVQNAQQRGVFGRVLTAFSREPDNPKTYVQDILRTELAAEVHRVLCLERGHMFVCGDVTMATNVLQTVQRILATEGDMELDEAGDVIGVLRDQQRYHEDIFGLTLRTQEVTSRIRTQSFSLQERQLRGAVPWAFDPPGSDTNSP

Variants of: B1
Conditions: with ppp6_human PPP6C

| Variant | effect of a mutation on the interaction |
| --- | --- |
| Y87C | with no effect |

Variants of: B1
Conditions: with ppp6_human PPP6C
Remark: another data set of the same source

| Variant | effect of a mutation on the interaction |
| --- | --- |
| F102C | with no effect |

Variants of: B1
Conditions: with ppp6_human PPP6C
Remark: another data set of the same source

| Variant | effect of a mutation on the interaction |
| --- | --- |
| F133L | with no effect |

Variants of: B1
Conditions: with ppp6_human PPP6C
Remark: another data set of the same source

| Variant | effect of a mutation on the interaction |
| --- | --- |
| F133V | with no effect |

Variants of: B2
Conditions: with mp2k4_human MAP2K4, P45985

| Variant | effect of a mutation on the interaction |
| --- | --- |
| F102C | with no effect |

Variants of: B2
Conditions: with mp2k4_human MAP2K4, P45985
Remark: another data set of the same source

| Variant | effect of a mutation on the interaction |
| --- | --- |
| Y87C | with no effect |

Variants of: B3
Conditions: with klhl6_human KLHL6, Q8WZ60

| Variant | effect of a mutation on the interaction |
| --- | --- |
| Y87C | with no effect |

Variants of: B3
Conditions: with klhl6_human KLHL6, Q8WZ60
Remark: another data set of the same source

| Variant | effect of a mutation on the interaction |
| --- | --- |
| F133L | with no effect |

Variants of: B3
Conditions: with klhl6_human KLHL6, Q8WZ60
Remark: another data set of the same source

| Variant | effect of a mutation on the interaction |
| --- | --- |
| F133V | with no effect |

Variants of: B3
Conditions: with klhl6_human KLHL6, Q8WZ60
Remark: another data set of the same source

| Variant | effect of a mutation on the interaction |
| --- | --- |
| F102C | with no effect |

Variants of: B4
Conditions: with mutyh_human MUTYH

| Variant | effect of a mutation on the interaction |
| --- | --- |
| Y87C | with no effect |

Variants of: B4
Conditions: with mutyh_human MUTYH
Remark: another data set of the same source

| Variant | effect of a mutation on the interaction |
| --- | --- |
| F133V | with no effect |

Variants of: B4
Conditions: with mutyh_human MUTYH
Remark: another data set of the same source

| Variant | effect of a mutation on the interaction |
| --- | --- |
| F133L | with no effect |

Variants of: B4
Conditions: with mutyh_human MUTYH
Remark: another data set of the same source

| Variant | effect of a mutation on the interaction |
| --- | --- |
| F102C | with no effect |

Variants of: B5
Conditions: with fgf6_human FGF6, P10767

| Variant | effect of a mutation on the interaction |
| --- | --- |
| F133V | with no effect |

Variants of: B5
Conditions: with fgf6_human FGF6, P10767
Remark: another data set of the same source

| Variant | effect of a mutation on the interaction |
| --- | --- |
| F133L | with no effect |

Variants of: B5
Conditions: with fgf6_human FGF6, P10767
Remark: another data set of the same source

| Variant | effect of a mutation on the interaction |
| --- | --- |
| F102C | with no effect |

Variants of: B5
Conditions: with fgf6_human FGF6, P10767
Remark: another data set of the same source

| Variant | effect of a mutation on the interaction |
| --- | --- |
| Y87C | with no effect |

Variants of: B6
Conditions: with bglr_human GUSB

| Variant | effect of a mutation on the interaction |
| --- | --- |
| F102C | with no effect |

Variants of: B6
Conditions: with bglr_human GUSB
Remark: another data set of the same source

| Variant | effect of a mutation on the interaction |
| --- | --- |
| Y87C | with no effect |

Variants of: B6
Conditions: with bglr_human GUSB
Remark: another data set of the same source

| Variant | effect of a mutation on the interaction |
| --- | --- |
| F133V | with no effect |

Variants of: B6
Conditions: with bglr_human GUSB
Remark: another data set of the same source

| Variant | effect of a mutation on the interaction |
| --- | --- |
| F133L | with no effect |

Variants of: B7
Conditions: with nos3_human NOS3, P29474

| Variant | effect of a mutation on the interaction |
| --- | --- |
| F102C | with no effect |
